Experimental data as given in the supplement of paper PMC9170038.

Legend:
[1] = test system: K4 kissing-loop RNA reporter; test: apparent KD of K4 kissing-loop reporter; higher = weaker reporter binding; conditions: Eterna round: R107;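 also: bound reporter read as fluorescence of individual clusters on recovered sequencing chips by microscopy, with normalized cluster intensities fitted with a binding model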
Protocol: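 RNA-MaP round R107: designed RNA switches with theophylline, tryptophan, arginine or FMN aptamers are transcribed on-chip within common flanks. They are titrated with a labelled K4 kissing-loop RNA reporter in RNA-MaP buffer (100 mM Tris pH 7.5, 80 mM KCl, 4 mM MgCl2), without ligand or with the indicated ligand. Median apparent KD per design.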

[2] = test system: MS2 coat protein; test: apparent KD of MS2 coat protein; designed switch direction (-1 OFF switch, 1 ON switch): -1; higher = weaker reporter binding
Summary of the method: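 RNA switches sharing common flanks were transcribed by stalled E. coli RNA polymerase on Illumina chips. A doubling series of SNAP-549-labelled MS2 coat protein, from 0.7 or 1.5 nM to 3 µM, was applied in Tris-HCl pH 7.5 buffer with KCl, MgCl2, BSA, DTT, tRNA and Tween-20. Each step lasted 0.8–1.5 h at the bottom of the series and 10–20 min at the top. Normalised cluster fluorescence was curve-fitted, giving apparent KD as the per-design median over clusters.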

[3] = input ligand: theophylline 20 uM
[4] = input ligand: tryptophan 2.4 mM
[5] = Eterna round: R95, input ligand: FMN 200 uM
[6] = Eterna round: R95, input ligand: microRNA oligo, concentration not stated
[7] = Eterna round: R95, input ligand: none

Sequence	apparent KD of K4 kissing-loop reporter ([1]; input ligand: FMN 200 uM)	apparent KD of K4 kissing-loop reporter ([1]; input ligand: arginine 13.2 mM)	apparent KD of K4 kissing-loop reporter ([1]; input ligand: none)	apparent KD of K4 kissing-loop reporter [1, 3]	apparent KD of K4 kissing-loop reporter [1, 4]	apparent KD of MS2 coat protein ([2]; input ligand: FMN 200 uM)	apparent KD of MS2 coat protein ([2]; input ligand: none)	apparent KD of MS2 coat protein [2, 5]	apparent KD of MS2 coat protein [2, 6]	apparent KD of MS2 coat protein [2, 7]	apparent KD of MS2 coat protein ([2]; input ligand: microRNA oligo, concentration not stated)
GGAUGGUAGGCGGCCGCCACUAAAACUGAACAAAUAUAAACCAGUGAUGUUGGUAUGAUGAAGUAUAGGACCGGGCCUAGAUAGA [Exclusion - Tryptophan B (Freestyle 1)]	124 nM	134 nM	143 nM	160 nM	122 nM	–	–	–	–	–	–
AGUGAUGUUGUGUUAUGUUUGGGAAGUGAUCGAGGACCGGUACGGCCGCCACUCGAGUGAUGAGUGAGUGAUGUUUGUUUAGGGA [whbob_SS_Tryp_A_m9]	1060 nM	698 nM	962 nM	1120 nM	498 nM	–	–	–	–	–	–
UGUACCGAGUCAGGAUAUACCGUCGAAAGACGAAAUGGAGUGAUGUUCCUUAAACUGCGAAAGCAGGUAGAAGGGACUUGGUACU [FmnBS 30 #SwitchBubble #StaticStem #DoubleMagnetSystem]	165 nM	263 nM	267 nM	263 nM	262 nM	–	–	–	–	–	–
GCAGUGAUGUUGCUGAUGUACAGUGGGAUACGAGGACCGGUACGGCCGCCACUCGUACAGAACUUAUUAAUACAUCGAUAAGUGA [XIV]	534 nM	612 nM	710 nM	643 nM	687 nM	–	–	–	–	–	–
AAACAUCACUGGGAGUGAUGUUCUCAGUGACGAGGACCGGUACGGCCGCCACUCGCGAGAGAUAUAGAUGAGUAAUGACAUCAUU [Excl Tryptophan A V3]	277 nM	232 nM	286 nM	274 nM	304 nM	–	–	–	–	–	–
AACGACUGGAUGAAUAACAUCUAGUCGAUUCGAGGACCGGUACGGCCGCCACUCGAGCUAACUGCGAGUGAUGUUCGAUAAUAAA [#OpenEnded 3]	347 nM	433 nM	390 nM	524 nM	96.6 nM	–	–	–	–	–	–
ACGUAGUUCUAGGAUACCAGCCAAGGAGGGUAGGACAAAAGUCCUGUAGCCAGUGAUGUUGGCCCUUGGCAGCCUAGAACUACGA [Omei KL Theo B Exc B v3]	162 nM	183 nM	138 nM	139 nM	151 nM	–	–	–	–	–	–
GGAUCCACCAGUGAUGUUGGAGAAAACUCUAAGGAUAUGACGAAAGUCAGAAGGUGGUAGACUGGUCAAAGUCCGGUCGGAUCCA [FmnA10 U30+U66]	237 nM	191 nM	577 nM	756 nM	249 nM	–	–	–	–	–	–
AUUUGUUUAUGUGAUACCAGACUUUGCAGUGAUGUUGCUUUUAUUUUUGAAUUUUAAAUAGUCCCUUGGCAGCACUAUGUAUUUA [JR_SSTheophyB_Sub009]	65.5 nM	132 nM	82.8 nM	137 nM	60.6 nM	–	–	–	–	–	–
GAUGAAUGCGGAAGGAGCGAGUUUUUGGGAGUGAUGUUCCCUGCAUAUGCACGUGGGAAAGCUCAGGUAGGUCGCCGCGCUUGUU [Same State Arginine B GF 28]	183 nM	244 nM	324 nM	208 nM	204 nM	–	–	–	–	–	–
GCCGUACGCAUGGAUACCAGCACUCGUUGAGUGAUGUUCACGAGGUGGUAUUCGACGGGCUGCCCUUGGCAGCCAUGCGUACGGC	111 nM	87.3 nM	102 nM	99 nM	121 nM	–	–	–	–	–	–
CAUAUAUAUAGAGGAUAUCGAGUAGAGUGAUGUUCUGCCUGGGUUGGCUCGCAAGGGCCUUCCCAGCGAGAAGGCUAUAUAUAUG [harrys-mod#1ED5.33]	225 nM	399 nM	502 nM	431 nM	482 nM	–	–	–	–	–	–
GACAGUCGGUGUUAAUGACAGUUACGCGAUACCAGCGAAACAGUACGCCCUUGGCAGCGCAGUGAUGUUGCGCGCCUAGUGUGGU [Esbiceve]	99.5 nM	94.8 nM	101 nM	92.5 nM	97.2 nM	–	–	–	–	–	–
UCCCUAAAGGGAGAUACCAGUAAAGAAGUGACGGAGUGGAGUGAUGUUCCAUAUUACUGAUACCCUUGGCAGCUCUUUUGAUUAC [theeternabot_sameState_KL_Theo_B_47]	108 nM	155 nM	113 nM	187 nM	93.2 nM	–	–	–	–	–	–
AAAUAGAUCAGUCACCCAGUGAUGUUGGAAGGAGCGUGCGAAAGCACAGGUAGGUCGCCGAAAUAAAAUUGGCUGAUCAAAAUAA	151 nM	221 nM	116 nM	308 nM	104 nM	–	–	–	–	–	–
UUGGAGUGAUGUUCCAUAUCUUGAGCCGAAGGAGCGGCAUUAUUGCCAGGUAGGUCGCGGCAGAAGGUACCAGUGAUGUUGGAAA [Same State Arginine A GF 4]	136 nM	138 nM	151 nM	126 nM	125 nM	–	–	–	–	–	–
UGACUGGACUGAAGGAGCGCUAAAACUCCUAGUGAUGUUGGGAAAACGAGACAAAGUCUCGAGCAGGUAGGUCGCAGUCUAGUCU [ArgBS 22 #SwitchBubble #StaticStem]	302 nM	196 nM	253 nM	278 nM	258 nM	–	–	–	–	–	–
GCUAUGGUAGGAAGGAGCGCUUAUUUAUUAAUAAGAGUGAUGUUCGAUAGUAGAUAUUUAUAGCAGGUAGGUCGCCUACUAUAGC [Arginine B K4 12]	186 nM	196 nM	167 nM	341 nM	167 nM	–	–	–	–	–	–
GCACACUAGUAAACUAGUGUGUUAACUGAAGGAGCGUGAAUAAUCACAGGUAGGUCGCAGUUUGUCAGUGAUGUUGACACGAGUG [Arg A SS t2]	165 nM	217 nM	249 nM	247 nM	179 nM	–	–	–	–	–	–
UUACUACCCAGUGAUGUUGGGUAGCGGCGGCGAGGACCGGUACGGCCGCCACUCGGCGCACGGGAGUGAUGUUCCUAAGAAUAAA [Same State Tryptophan A GF 9]	295 nM	306 nM	335 nM	350 nM	140 nM	–	–	–	–	–	–

Sequence	apparent KD of K4 kissing-loop reporter ([1]; input ligand: FMN 200 uM)	apparent KD of K4 kissing-loop reporter ([1]; input ligand: arginine 13.2 mM)	apparent KD of K4 kissing-loop reporter ([1]; input ligand: none)	apparent KD of K4 kissing-loop reporter [1, 3]	apparent KD of K4 kissing-loop reporter [1, 4]	apparent KD of MS2 coat protein ([2]; input ligand: FMN 200 uM)	apparent KD of MS2 coat protein ([2]; input ligand: none)	apparent KD of MS2 coat protein [2, 5]	apparent KD of MS2 coat protein [2, 6]	apparent KD of MS2 coat protein [2, 7]	apparent KD of MS2 coat protein ([2]; input ligand: microRNA oligo, concentration not stated)
GGAUCUGCCAGUGAUGUUGGUUAAUAUAUCAAGGAUAUGACGAAAGUCAGAAGGUGAAAGACUGGACAAAGUCCAGUCGGAUCCA [KL-SSFMN-A20]	237 nM	312 nM	352 nM	460 nM	270 nM	–	–	–	–	–	–
UGAUAGGACAGAAGGAGCGGAAGUGAUGUUUCCAAAAGGGUAAGGUGUCAAAAGACACCCUUCCAGGUAGGUCGCUGUCCUAUCU	93.9 nM	109 nM	99 nM	111 nM	86.3 nM	–	–	–	–	–	–
UUGCCCGAUGGAGAUACCAGCAGUUGUGCAGUGAUGUUGCACAAGUACUCGCUCCAUUGCUGCCCUUGGCAGCUCCCGGCGAAAA [Reoraren]	95.9 nM	79.7 nM	84.7 nM	92.4 nM	81.3 nM	–	–	–	–	–	–
AACGCUUGAAUAACAAGCGAAAUAAAUUCGCGAGGACCGGUACGGCCGCCACUCGCUAACUGCGAGUGAUGUUCGAUAAUAAAAU [Mat - Mod of OpenEnded 3 - D15]	103 nM	66.1 nM	136 nM	234 nM	71 nM	–	–	–	–	–	–
CUGAGCCUGACGAAAGUCAGGCUCUGCGAGCGAGGACCGGUACGGCCGCCACUCGGUGCAGUGAUGUUGCAUGGCCGCAAGGCCG [#2 Exclusion - Tryptophan A Attempt #18 (HarryS)]	263 nM	289 nM	207 nM	256 nM	262 nM	–	–	–	–	–	–
AGGCACGAGCAAGGAUAUCGAGUAGAGUGAUGUUCUGCCUGGGUUGGCCCGAAAGGGCCUUCCCAGCGAGAAGGUGCUCGUGCCU [#2 Same State - FMN A Attempt #9 (HarryS)]	222 nM	588 nM	766 nM	492 nM	863 nM	–	–	–	–	–	–
UAGUCCGGGUGAUGGUCAUCACGUGGCGGGCGAGGACCGGUACGGCCGCCACUCGACUUUGCAGUGAUGUUGCAAACCGGACAAU [Exclusion - Tryptophan A (Freestyle 22)]	221 nM	192 nM	201 nM	225 nM	259 nM	–	–	–	–	–	–
AGAGUUAAUUAGUCUUUUUUCACAUUAAGUCAGGAUAUCGUAUUUUCGAGAAGGGACACAUGCUAGUGAUGUUAGCUAUUUCUCA [JR_Nu3_ExcFMNA_Sub020]	60.1 nM	103 nM	67.5 nM	114 nM	59.6 nM	–	–	–	–	–	–
GCAGGACGAUGAGGAGGAUGAAUUACUGAAGGAGCGCAUAUGGUUGCAGGUAGGUCGCGGUGAACAAGUAUAGUGAUGUUAUAUC [SSArgA.R]	755 nM	179 nM	138 nM	471 nM	1050 nM	–	–	–	–	–	–
CGAGUGAUGUUCGUUUUUUAAUUUUUUUGACAGGAUAUGCGGAAACGCAGAAGGGUCACCUUUGAGUUAAAAGAAUUUAUUUUUU [Ex FMN A 17]	321 nM	236 nM	295 nM	298 nM	199 nM	–	–	–	–	–	–
AAAUAGCAGCAACGAGUGAUGUUCGACGAUACCAGCCUCGAUAGAGGCCCUUGGCAGCGUAAAUGAUCACAAAGCCAAGGGCUGC [#SwitchBubble 2]	382 nM	372 nM	458 nM	453 nM	397 nM	–	–	–	–	–	–
UAAUUUAUGUCUUUAAUAUAAUUUUCAGAUACCAGUGAUUAUUAACACCCUUGGCAGCUGUGUAGAGUGAUGUUCUCAUGCUUAA [#07 K4 Theophylline A Exclusion]	307 nM	354 nM	365 nM	373 nM	229 nM	–	–	–	–	–	–
AAGCAGUCGCUCGAAGCCAUCGAAGAUGGGCGAGGACCGGUACGGCCGCCACUCGGAGUGAUGUUCCGAGGACUGCAAAAUAAAA [MatMod 5 - Jieux - Exclusion - Tryptophan A]	418 nM	246 nM	321 nM	263 nM	409 nM	–	–	–	–	–	–
GCCUGAGCACGAAGGAGCGCCGUGACAGGUUACUGCCUUGGGCAGUGAUGUUGCUCAAUCUGGCAGGUAGGUCGCGUGCUCAGGC	165 nM	161 nM	162 nM	131 nM	167 nM	–	–	–	–	–	–
UAAUAAAUUCUGGCAAUGUCACUCUUCGAAGGAGCGGACGAAAGUCCAGGUAGGUCGCGAAGAGUGAUGUUCUUCGCGGCGCCAG [Omei KL Arginine A Exc A v1]	299 nM	235 nM	235 nM	304 nM	268 nM	–	–	–	–	–	–
CCACGACAUGAGGAUCACCCAUGUGAGGAUAUGGCCUGAAAAGCGUGAGCAGUAUCAAUCAGAAGGCGCGUGGG [salish99_ex1_r4_061] (Eterna round: R97, puzzle: Exclusion 1)	–	–	–	–	–	116 nM	76.4 nM	–	–	–	–
GGUUGUUUUUUCCGUUCUUACAUGAGGAUCACCCAUGUUUCUUGUCGUGCUCGCGUUGCUCGUCUGUCUGUCUGUUG [salish99_TOv1_r3_073] (puzzle: Sensor v3, turn-off variant 1)	–	–	–	–	–	–	–	48.5 nM	34.3 nM	56 nM	–
AAAAAGUGAGGAUAUGCAUAAGGACCCGGGAGGGAAAUAAAACAUGAGGAUCACCCAUGUAGAAGGCGCAAAAA [Exclss2-II] (puzzle: Exclusion 2)	–	–	–	–	–	–	–	17.2 nM	16 nM	15.7 nM	–
UAAUGUGCGAGAGGAUAUCGUGUACAAAGUACACGAGAAGGCUUCACAUGAGGAUCACCCAUGUAUCGAGGUGAAACACCUUGA [Omei Exc(NG)1 Bv3] (Eterna round: R96, puzzle: Exclusion NG 1)	–	–	–	–	–	448 nM	212 nM	–	–	–	254 nM
